Measured values reported in patent publication US20090017041A1.

Tests used:
[1] = biological target: high molecular weight (HMW) proto-fibrillar (PF) oligomer enriched preparation of the Aβ1-42 peptide (Example 15) (human); assay: ELISA, fraction coated at 2 µM; antibody 0.25 µg/ml
[2] = biological target: low molecular weight (LMW) monomeric preparation of the Aβ1-42 peptide (Example 15) (human); assay: as above
[3] = biological target: high molecular weight (HMW) proto-fibrillar (PF) oligomer enriched preparation of the Aβ1-42 peptide (Example 15) (human); assay: ELISA, fraction coated at 2 µM; antibody 0.0078 µg/ml
[4] = biological target: low molecular weight (LMW) monomeric preparation of the Aβ1-42 peptide (Example 15) (human); assay: as above
[5] = biological target: high molecular weight (HMW) proto-fibrillar (PF) oligomer enriched preparation of the Aβ1-42 peptide (Example 15) (human); assay: ELISA, fraction coated at 2 µM; antibody 0.0625 µg/ml
[6] = biological target: low molecular weight (LMW) monomeric preparation of the Aβ1-42 peptide (Example 15) (human); assay: as above
[7] = biological target: monomer-enriched preparation of the Aβ1-42 peptide (Example 16); assay: ELISA, fraction coated at 2.2 µM; antibody dilution 1:16 (start 0.5 µg/ml)
[8] = biological target: oligomer-enriched preparation of the Aβ1-42 peptide (Example 16); assay: as above
[9] = biological target: monomer-enriched preparation of the Aβ1-42 peptide (Example 16); assay: ELISA, fraction coated at 2.2 µM; antibody dilution 1:32 (start 0.5 µg/ml)
[10] = biological target: oligomer-enriched preparation of the Aβ1-42 peptide (Example 16); assay: as above
[11] = biological target: monomer-enriched preparation of the Aβ1-42 peptide (Example 16); assay: ELISA, fraction coated at 2.2 µM; antibody dilution 1:64 (start 0.5 µg/ml)
[12] = biological target: oligomer-enriched preparation of the Aβ1-42 peptide (Example 16); assay: as above
[13] = biological target: monomer-enriched preparation of the Aβ1-42 peptide (Example 16); assay: ELISA, fraction coated at 2.2 µM; antibody dilution 1:128 (start 0.5 µg/ml)
[14] = biological target: oligomer-enriched preparation of the Aβ1-42 peptide (Example 16); assay: as above
[15] = biological target: monomer-enriched preparation of the Aβ1-42 peptide (Example 16); assay: ELISA, fraction coated at 2.2 µM; assay 2; antibody dilution 1:1 (start 0.5 µg/ml)
[16] = biological target: oligomer-enriched preparation of the Aβ1-42 peptide (Example 16); assay: as above
[17] = biological target: monomer-enriched preparation of the Aβ1-42 peptide (Example 16); assay: ELISA, fraction coated at 2.2 µM; assay 2; antibody dilution 1:4 (start 0.5 µg/ml)
[18] = biological target: oligomer-enriched preparation of the Aβ1-42 peptide (Example 16); assay: as above
[19] = biological target: oligomer-enriched preparation of the Aβ1-42 peptide (Example 16); assay: ELISA, fraction coated at 2.2 µM; assay 2; antibody dilution 1:8 (start 0.5 µg/ml)
[20] = biological target: monomer-enriched preparation of the Aβ1-42 peptide (Example 16); assay: ELISA, fraction coated at 2.2 µM; assay 3; antibody dilution 1:4 (start 0.5 µg/ml)
[21] = biological target: oligomer-enriched preparation of the Aβ1-42 peptide (Example 16); assay: as above
[22] = biological target: oligomer-enriched preparation of the Aβ1-42 peptide (Example 16); assay: ELISA, fraction coated at 2.2 µM; assay 3; antibody dilution 1:8 (start 0.5 µg/ml)
[23] = biological target: oligomer-enriched preparation of the Aβ1-42 peptide (Example 16); assay: ELISA, fraction coated at 2.2 µM; assay 1; antibody dilution 1:16 (start 0.5 µg/ml)
[24] = biological target: monomer-enriched preparation of the Aβ1-42 peptide (Example 16); assay: ELISA, fraction coated at 2.2 µM; assay 1; antibody dilution 1:64 (start 0.5 µg/ml)
[25] = biological target: oligomer-enriched preparation of the Aβ1-42 peptide (Example 16); assay: as above
[26] = biological target: monomer-enriched preparation of the Aβ1-42 peptide (Example 16); assay: ELISA, fraction coated at 2.2 µM; assay 2; antibody dilution 1:16 (start 0.5 µg/ml)
[27] = biological target: oligomer-enriched preparation of the Aβ1-42 peptide (Example 16); assay: as above
[28] = biological target: monomer-enriched preparation of the Aβ1-42 peptide (Example 16); assay: ELISA, fraction coated at 2.2 µM; assay 3; antibody dilution 1:16 (start 0.5 µg/ml)
[29] = biological target: oligomer-enriched preparation of the Aβ1-42 peptide (Example 16); assay: as above
[30] = biological target: monomer-enriched preparation of the Aβ1-42 peptide (Example 16); assay: ELISA, fraction coated at 2.2 µM; assay 1; antibody dilution 1:128 (start 0.5 µg/ml)
[31] = biological target: oligomer-enriched preparation of the Aβ1-42 peptide (Example 16); assay: as above
[32] = biological target: monomer-enriched preparation of the Aβ1-42 peptide (Example 16); assay: ELISA, fraction coated at 2.2 µM; assay 2; antibody dilution 1:128 (start 0.5 µg/ml)
[33] = biological target: oligomer-enriched preparation of the Aβ1-42 peptide (Example 16); assay: as above

Sequence of low molecular weight (LMW) monomeric preparation of the Aβ1-42 peptide (Example 15) (human) (peptide, as listed by the source): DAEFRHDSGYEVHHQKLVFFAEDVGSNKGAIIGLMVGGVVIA
Sequence of monomer-enriched preparation of the Aβ1-42 peptide (Example 16) (peptide, as listed by the source): as above
Sequence of oligomer-enriched preparation of the Aβ1-42 peptide (Example 16) (peptide, as listed by the source): as above
Sequence of high molecular weight (HMW) proto-fibrillar (PF) oligomer enriched preparation of the Aβ1-42 peptide (Example 15) (human) (peptide, as listed by the source): as above

Q: 6E10 control antibody was tested. Which O.D. (405 nm) [1] did it give?
A: 1.44 O.D.

Q: And the O.D. (405 nm) [2]?
A: 1.56 O.D.

Q: What about the O.D. (405 nm) [3] of the same substance?
A: 0.116 O.D.

Q: What about the O.D. (405 nm) [4] of the same substance?
A: 0.133 O.D.

Q: And the O.D. (405 nm) [5]?
A: 0.544 O.D.

Q: What about the O.D. (405 nm) [6] of the same substance?
A: 0.574 O.D.

Q: What about the O.D. (405 nm), mean of 3 assays [7] of the same substance?
A: 1.98 O.D.

Q: And the O.D. (405 nm), mean of 3 assays [8]?
A: 1.92 O.D.

Q: What about the O.D. (405 nm), mean of 3 assays [9] of the same substance?
A: 1.36 O.D.

Q: What about the O.D. (405 nm), mean of 3 assays [10] of the same substance?
A: 1.32 O.D.

Q: What about the O.D. (405 nm), mean of 3 assays [11] of the same substance?
A: 0.94 O.D.

Q: And the O.D. (405 nm), mean of 3 assays [12]?
A: 0.92 O.D.

Q: And the O.D. (405 nm), mean of 3 assays [13]?
A: 0.75 O.D.

Q: And the O.D. (405 nm), mean of 3 assays [14]?
A: 0.63 O.D.

Q: And the O.D. (405 nm) [15]?
A: 3.77 O.D.

Q: And the O.D. (405 nm) [16]?
A: 3.67 O.D.

Q: And the O.D. (405 nm) [17]?
A: 3.29 O.D.

Q: What about the O.D. (405 nm) [18] of the same substance?
A: 3.37 O.D.

Q: And the O.D. (405 nm) [19]?
A: 2.99 O.D.

Q: And the O.D. (405 nm) [20]?
A: 3.52 O.D.

Q: And the O.D. (405 nm) [21]?
A: 3.64 O.D.

Q: What about the O.D. (405 nm) [22] of the same substance?
A: 3.23 O.D.

Q: What about the O.D. (405 nm) [23] of the same substance?
A: 1.78 O.D.

Q: What about the O.D. (405 nm) [24] of the same substance?
A: 0.81 O.D.

Q: And the O.D. (405 nm) [25]?
A: 0.93 O.D.

Q: And the O.D. (405 nm) [26]?
A: 1.94 O.D.

Q: What about the O.D. (405 nm) [27] of the same substance?
A: 1.92 O.D.

Q: And the O.D. (405 nm) [28]?
A: 2.23 O.D.

Q: And the O.D. (405 nm) [29]?
A: 2.07 O.D.

Q: And the O.D. (405 nm) [30]?
A: 0.64 O.D.

Q: What about the O.D. (405 nm) [31] of the same substance?
A: 0.62 O.D.

Q: And the O.D. (405 nm) [32]?
A: 0.75 O.D.

Q: And the O.D. (405 nm) [33]?
A: 0.61 O.D.
